{"source": "patent WO2017015008A1", "about": "(dated 2017)", "key": {"[1]": {"target": "T1, human HER3 ECD as shown in SEQ ID NO: 23 (human, UniProt P21860 20-643)", "T1 construct": "also called soluble HER3-ECD", "T1 sequence (P21860 other isoform, or with tags, fused parts or gaps, form in doubt)": "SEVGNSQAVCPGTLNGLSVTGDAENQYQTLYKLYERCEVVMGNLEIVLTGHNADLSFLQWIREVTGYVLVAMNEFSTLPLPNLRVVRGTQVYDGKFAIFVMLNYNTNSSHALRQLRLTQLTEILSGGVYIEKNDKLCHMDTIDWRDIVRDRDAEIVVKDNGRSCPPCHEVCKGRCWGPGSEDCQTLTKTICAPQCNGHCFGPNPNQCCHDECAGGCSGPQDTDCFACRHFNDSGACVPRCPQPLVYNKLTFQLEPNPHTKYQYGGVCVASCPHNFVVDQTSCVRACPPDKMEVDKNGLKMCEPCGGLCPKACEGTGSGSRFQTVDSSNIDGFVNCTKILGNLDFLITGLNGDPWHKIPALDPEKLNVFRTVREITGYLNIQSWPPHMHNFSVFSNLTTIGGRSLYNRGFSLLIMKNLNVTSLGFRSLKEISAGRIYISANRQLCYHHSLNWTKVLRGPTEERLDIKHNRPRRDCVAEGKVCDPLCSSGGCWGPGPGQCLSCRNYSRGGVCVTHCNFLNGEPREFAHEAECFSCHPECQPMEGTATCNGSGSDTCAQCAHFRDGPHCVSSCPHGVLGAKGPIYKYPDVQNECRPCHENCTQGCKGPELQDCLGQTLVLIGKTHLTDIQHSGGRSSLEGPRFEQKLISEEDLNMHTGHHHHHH", "assay": "SPR (Biacore), antibody captured on Protein A, soluble HER3-ECD as analyte"}, "Rhesus mature HER3-ECD [2]": {"target": "T2, Rhesus mature HER3-ECD (rhesus monkey, UniProt H9ERZ8 20-643)", "T2 construct": "extracellular domain; Bought protein; also called Rhesus HER3-ECD; cynomolgus monkey HER3-ECD", "T2 sequence (H9ERZ8 entry or part of it)": "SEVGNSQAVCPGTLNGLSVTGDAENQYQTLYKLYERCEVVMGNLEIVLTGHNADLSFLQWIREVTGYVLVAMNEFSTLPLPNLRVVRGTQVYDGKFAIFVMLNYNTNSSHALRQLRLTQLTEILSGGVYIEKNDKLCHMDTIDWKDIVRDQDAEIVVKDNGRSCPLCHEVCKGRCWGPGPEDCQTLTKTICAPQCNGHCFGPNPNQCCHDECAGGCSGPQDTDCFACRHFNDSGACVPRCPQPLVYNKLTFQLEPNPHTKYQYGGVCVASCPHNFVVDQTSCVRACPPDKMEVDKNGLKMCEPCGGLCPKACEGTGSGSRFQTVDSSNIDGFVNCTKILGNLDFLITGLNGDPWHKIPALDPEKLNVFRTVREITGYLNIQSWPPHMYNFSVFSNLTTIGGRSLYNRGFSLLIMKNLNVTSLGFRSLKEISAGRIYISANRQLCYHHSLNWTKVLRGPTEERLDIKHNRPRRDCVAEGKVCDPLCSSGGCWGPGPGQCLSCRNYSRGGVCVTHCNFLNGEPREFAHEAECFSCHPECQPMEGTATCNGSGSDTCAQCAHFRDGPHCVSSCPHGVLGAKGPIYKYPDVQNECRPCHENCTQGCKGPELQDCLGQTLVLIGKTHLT", "assay": "SPR (Biacore), antibody captured on Protein A, soluble HER3-ECD as analyte"}, "[3]": {"target": "T3, mouse mature HER3 ECD as shown in SEQ ID NO: 24 (mouse, UniProt Q61526 20-641)", "T3 construct": "also called mouse HER3 ECD; mouse soluble HER3-ECD", "T3 sequence (Q61526 20-641 limits assumed)": "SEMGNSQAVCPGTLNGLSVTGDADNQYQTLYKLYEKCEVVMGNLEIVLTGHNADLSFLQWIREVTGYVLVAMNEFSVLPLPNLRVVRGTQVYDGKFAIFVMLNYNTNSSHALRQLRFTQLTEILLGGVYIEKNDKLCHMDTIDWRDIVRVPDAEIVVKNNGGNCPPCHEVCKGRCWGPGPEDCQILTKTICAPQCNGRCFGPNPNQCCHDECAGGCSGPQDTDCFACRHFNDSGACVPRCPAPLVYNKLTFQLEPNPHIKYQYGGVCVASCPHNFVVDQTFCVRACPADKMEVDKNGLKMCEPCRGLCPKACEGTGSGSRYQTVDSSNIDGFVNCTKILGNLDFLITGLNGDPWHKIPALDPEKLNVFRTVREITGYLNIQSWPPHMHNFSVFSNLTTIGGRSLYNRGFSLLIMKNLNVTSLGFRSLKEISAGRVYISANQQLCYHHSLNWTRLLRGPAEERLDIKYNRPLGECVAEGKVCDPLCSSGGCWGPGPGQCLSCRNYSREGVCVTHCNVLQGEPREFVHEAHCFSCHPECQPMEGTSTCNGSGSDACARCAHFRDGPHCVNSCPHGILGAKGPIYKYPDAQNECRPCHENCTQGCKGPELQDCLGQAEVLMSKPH", "assay": "SPR (Biacore), antibody captured on Protein A, soluble HER3-ECD as analyte"}, "[4]": {"target": "T1, human HER3 ECD as shown in SEQ ID NO: 23", "assay": "SPR (Biacore), antibody captured on Protein A, soluble HER3-ECD as analyte, 37°C, 1:1 model"}, "Rhesus mature HER3-ECD [5]": {"target": "T2, Rhesus mature HER3-ECD", "assay": "SPR (Biacore), antibody captured on Protein A, soluble HER3-ECD as analyte, 37°C, 1:1 model"}, "[6]": {"target": "T3, mouse mature HER3 ECD as shown in SEQ …", "assay": "SPR (Biacore), antibody captured on Protein A, soluble HER3-ECD as analyte, 37°C, 1:1 model"}}}
{"binder": "anti-HER3 Antibody A (antibody, human IgG1, kappa, V domains shown, IgG type; human IgG1 Fc with C-terminal lysine deletion is stated only in embodiment language) VH: EVQLVESGGGLVKPGGSLRLSCAASGFSLDTYTMIWVRQAPGKGLEWVGIIYVTYNTYYANWAKGRFTISRDDSKNTLYLQMNSLKTEDTAVYYCTRWGDQNGLDIWGQGTLVTVSS VL: DIQMTQSPSSLSASVGDRVTITCQSSQRVYGNKNLAWYQQKPGKAPKLLIYFARTLASGVPSRFSGSGSGTDFTLTISSLQPEDFATYYCQGTYYGTNWYVGFGGGTKVEIKR", "values": [{"measurement": "binding stoichiometry", "setting": "[1]", "value": "~2 moles of ligand per mole of antibody"}, {"measurement": "binding stoichiometry", "setting": "Rhesus mature HER3-ECD [2]", "value": "~2 moles of ligand per mole of antibody"}, {"measurement": "binding stoichiometry", "setting": "[3]", "value": "~2 moles of ligand per mole of antibody"}, {"measurement": "Kd", "setting": "[4]", "value": 1.6, "unit": "nM"}, {"measurement": "Kd", "setting": "Rhesus mature HER3-ECD [5]", "value": 2.1, "unit": "nM"}, {"measurement": "Kd", "setting": "[6]", "value": 3, "unit": "nM"}]}
